The source of these data is patent publication US20060172958A1 (published 2006).

For assay [1], the target named is c-abl kinase (UniProt P00519 1-1130, limits assumed). The assay can be described thus: co-immunoprecipitation with PLS3 antibody, Western blot with c-abl antibody. (In general: A western blot detects proteins with antibodies after separation by electrophoresis.)
Assay [2] addresses T1, yeast two-hybrid library clone encoding amino acids 103-277 of phospholipid scramblase 3 (human, UniProt Q9NRY6 103-277).
T1 construct: also called PLS3 clone; cDNA cloned from the yeast two-hybrid screen; not shown: fusion partner of the Clontech MatchMaker human liver library vector
The assay can be described thus: yeast two-hybrid.

c-abl kinase, sequence (P00519 whole entry, the tested form may be a part): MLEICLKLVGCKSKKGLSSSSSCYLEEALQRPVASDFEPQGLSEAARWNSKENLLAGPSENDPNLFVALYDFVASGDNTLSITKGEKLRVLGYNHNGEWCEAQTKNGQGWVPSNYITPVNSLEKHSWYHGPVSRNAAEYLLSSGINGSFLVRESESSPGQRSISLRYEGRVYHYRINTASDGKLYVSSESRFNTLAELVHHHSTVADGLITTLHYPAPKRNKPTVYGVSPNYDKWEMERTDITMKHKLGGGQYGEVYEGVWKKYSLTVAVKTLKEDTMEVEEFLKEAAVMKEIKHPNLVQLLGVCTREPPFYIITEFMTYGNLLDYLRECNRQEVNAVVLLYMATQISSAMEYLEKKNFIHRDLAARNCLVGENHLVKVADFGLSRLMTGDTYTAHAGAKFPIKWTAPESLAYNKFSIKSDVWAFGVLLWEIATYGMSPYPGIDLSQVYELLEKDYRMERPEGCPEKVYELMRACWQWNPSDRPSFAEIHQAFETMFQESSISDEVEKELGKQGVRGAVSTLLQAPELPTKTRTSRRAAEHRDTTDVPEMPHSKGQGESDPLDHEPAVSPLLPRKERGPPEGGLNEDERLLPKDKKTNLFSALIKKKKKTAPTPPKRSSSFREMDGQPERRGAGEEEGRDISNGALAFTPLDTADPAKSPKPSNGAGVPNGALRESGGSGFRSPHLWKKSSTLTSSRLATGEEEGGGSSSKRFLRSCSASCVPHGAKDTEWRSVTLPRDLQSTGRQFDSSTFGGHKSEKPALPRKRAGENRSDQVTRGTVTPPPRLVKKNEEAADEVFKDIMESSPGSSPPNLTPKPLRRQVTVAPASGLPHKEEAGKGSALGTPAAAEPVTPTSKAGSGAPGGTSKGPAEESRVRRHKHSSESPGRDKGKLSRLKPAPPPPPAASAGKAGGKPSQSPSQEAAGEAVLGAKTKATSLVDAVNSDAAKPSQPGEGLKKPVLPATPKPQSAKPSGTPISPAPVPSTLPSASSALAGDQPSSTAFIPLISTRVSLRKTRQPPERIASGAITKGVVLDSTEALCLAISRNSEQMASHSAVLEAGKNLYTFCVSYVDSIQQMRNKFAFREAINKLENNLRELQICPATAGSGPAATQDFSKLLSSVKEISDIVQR
T1 sequence (Q9NRY6 103-277): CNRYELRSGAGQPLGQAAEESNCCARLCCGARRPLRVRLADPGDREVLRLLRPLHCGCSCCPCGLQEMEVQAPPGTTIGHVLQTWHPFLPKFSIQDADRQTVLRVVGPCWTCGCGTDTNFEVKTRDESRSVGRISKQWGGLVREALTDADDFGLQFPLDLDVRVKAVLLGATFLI

B1: phospholipid scramblase 3 (PLS3), human, isoform not stated (enzyme)
chain: not shown
modifications: phosphothreonine, position not stated (shown by the anti-PT blot of immunoprecipitated PLS3)
notes: also called endogenous PLS3; wild-type PLS3
Turning to B1, the binding result in assay [1] is “no binding”.

B2: lamin C control bait (pAS2-lamin C) (other, UniProt P02545-2 66-230, looked up)
chain: SEEVVSREVSGIKAAYEAELGDARKTLDSVAKERARLQLELSKVREEFKELKARNTKKEGDLIAAQARLKDLEALLNSKEAALSTALSEKRTLEGELHDLRGQVAKLEAALGEAKKQLQDEMLRRVDAENRLQTMKEELDFQKNIYSEELRETKRRHETRLVEID
notes: also called control bait lamin C; not shown: bait fusion partner encoded by the pAS2 vector
On to B2, for which the binding result in assay [2] is recorded as “no binding”.
